Assay: label from the status in PepcDB records
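Also: failed if final PepcDB status was selected cloned or expressed and not failed if soluble or beyond.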

Sequence | protein production
MPTPAYIKIVGQTQGNITAGAFTADSVGNVFQQGHEDQILVQEIKHEVTTPTDPQSGQPSGQRVHKPFIFTSSLNKATPLMYQALATGEMLPTVEVSWYRTSSEGKQEHFFTTTLEDATIVSINTVLPHALDKDNENYTQLVEVSLAYRKITWAHDVANTEGSDDWRAPAA | failed
MPTPAYMSINGETQGHITKDTYSADSVGNTWQEAHVDEFLVQELDHVLTVPRDPQSGQPTGQRVHRPLVVTKVQDRSSPLLFNALVSGEKLPECLIRFYRTSVQGKQEHYYSIKLIDALLVDIQTRMNHCQDAATADRVTEEVLKFTYRAIEVTHENCGTAGNDDWRAPREA | failed
MPTPPAASSLAAQMGESPAPLYARVKHMIALQIQNGTWPPHHRVPSESELVTQLGFSRMTINRALRELTVEGLLVRMQGVGTFVAEPKSQSALFEVHNIADEIAARGHRHTCKVMVLKEEAAGSERALALDMREGQRVFHSLIVHFENDIPVQIEDRFVNAQVAPDYLKQDFTLQTPYAYLSQVAPLTEGEHVVEAILAEADECKLLQIDAGEPCLLIRRRTWSGRQPVTAARLIHPGSRHRLEGRFTK | not failed
MPTTKQLKDTELPLNFFEHSSLETIELFIQHLTEAMILVNANGFIRSCNQRSAELLDCPQVSLKGQDWRNFLTEHHQARYDNLLSHDVQLGTNCGQPVQHPAQETTLICASGKAKDVELSISYIPGHEPMFVMVMHDLTHHKAENQKLRKLAATDSLTQLANRRYFDEMLQQHWEECTAKLRPISVVIIDVDYFKVFNDQFGHIQGDECLRKIAKVIAGIVPTEIGLAARYGGEEFALILPNHNAKMALTIAQKIQQGINNIRFTDQGLRDYVSVSASQGIACEVNGQFRTSLAMVCAADTALYRAKADGRDRINTSL | failed
MPTTTTDPNQKQAELSPDELQRYSRHLTLPEFGREGQEALKNASVLLVGAGGLGSPAATYLAAAGVGRIGLVDFDSVEASNLQRQILYGTSDVGRPKLDAASERLEDLNPHVDVETHEVRLTSDNALDIIDQYDVVADGTDNFPTRYLVNDACVMTGTPNVYASIFRFEGQVSVFATEDGPCYRCLYEEPPPPGLVPSCAEGGVLGILPGFIGTLQATEVIKVLTGVGEPLVGRLLMSDALNMDFRTVNVPTNPECPVCGDDPTVTELIDYEAFCGLPQSDESSPNGTADSDVSDTDDAVPETSVHDLKQRRDAGDAPFVLDVREPYEAEIASLDADQLIPVDDLEARLDELDAGPEEEIVVHCRSGARSAKATAFLREQGYDASNLEGGVLAWSEEIDDSVPQY | failed
MPTVKKLTKQVVDGLPTPATGQAFHWCSVTPGFAVRVTASGAKSYIVQGRVNSKTCRYTIGPCELLGTDEARKRALARLLEMHDGMNPQVERKRRQAQGVTLREVMEDYVENKRTKHGTLRDSSQADIKRCVTQHLADWADKPVASITREACVKRFRELSATAPTTANQVFRNLRALCNWARETNVAPDGSYPILPINPVVQAFKSVTWNKEVTREEFVPLAKVGAVWNMLAERSNAQIYTTADVTAAHLVMFLILTGARIGEGSALHWKDVRLDDEVPSFTFTQTKNHNEVTIPLSTQLHALLAARYSARRPDEEYVFPSRTGTREPHMQDARGTMQRVSKIAGLHLHNHDLRRTFLAIAIECGVEMWKAEILTNHLPQTVTLKHYTQTRDLRYLQADTQRVADWITKQAQVASGQNVVALRA | failed
MPTVLRWTRTMCKRPTCRVRQAWLVLPITGRWPSGGVSMKHACMLDSALPKPSQHSLRRQLNAIKREQFPWMSEVTKNAPQMAIIQLGRAFQNFFAGRAKYPKFRKKGMHDRFTLTNDQFDLEASRIRIPRLGWVRMRETLRFAGKIMLATVSRVAGRWFVSITVDVPDPSHLPQAENQGTVGVDLGVLVLATLSTGETVCGPRPHRALLGRVCRLSRSVLRKVKGSANRHKAKATLANLHARIAAIRLDALHTLTSDLTRRFHTIGIENLNVKGMLRNRHLARSIADIGFFEFRRQLEYKAMMRGGQVVVANRFFASSKRCLTCGHTLNELPLSVRQWACPACGARHDRDVNAAVNLKNMAVSSTVSACGEEGAGPRRKTAVGEAGSQLLEHHHHHH | failed
MPTYPPSLLQSLLQYIPERELAWDCGAGSGQLTHMLASYFDQVVGTDISQTQLSHAEYYDNISYQLQPAENTTFPDHCFDLITVAQAIHWFDFEAFYAEVRRTIKPSGILAVVGYGLIHVDDLEINAKVQHLYHQTLNGFWDAERHYVDELYQTIPFPFDEIEMPAFQIEAQWTLQQLLQYLNTWSAVQHYILEKNLDPVQQLLSKGLEHHHHHH | failed
MPVEITVKELLEAGVHFGHERKRWNPKFARYIYAERNGIHIIDLQKTMEELERTFRFIEDLAMRGGTILFVGTKKQAQDIVRMEAERAGMPYVNQRWLGGMLTNFKTISQRVHRLEELEALFASPEIEERPKKEQVRLKHELERLQKYLSGFRLLKRLPDAIFVVDPTKEAIAVREARKLFIPVIALADTDSDPDLVDYIIPGNDDAIRSIQLILSRAVDLIIQARGGVVEPSPSYALVQEAEATETPEGESEVEA | not failed
MPVHSRGDKKETNHHDEMEVDYAENEGSSSEDEDTESSSVSEDGDSSEMDDEDCERRRMECLDEMSNLEKQFTDLKDQLYKERLSQVDAKLQEVIAGKAPEYLEPLATLQENMQIRTKVAGIYRELCLESVKNKYECEIQASRQHCESEKLLLYDTVQSELEEKIRRLEEDRHSIDITSELWNDELQSRKKRKDPFSPDKKKPVVVSGPYIVYMLQDLDILEDWTTIRKAMATLGPHRVKTEPPVKLEKHLHSARSEEGRLYYDGEWYIRGQTICIDKKDECPTSAVITTINHDEVWFKRPDGSKSKLYISQLQKGKYSIKHS | not failed
MPVRTSQASQGNRGKGVGLGLALASAVAFGGSGVAAKPLIEAGLDPLHVVWLRVSGAALVMLPLAVRHRALLRRRPALLIGFGLLAVAGVQACYFAAISRIPVGVALLVEYLAPALVLGWVRFVQRRPVTRAAALGVVLAVGGLACVVEVWSGLGFDALGLLLALAAACCQVGYFVLSDQGSETGEDAPDPLGVIAFGLLIGALVLTVVARPWTMDWSVLGGRADMNGDSVPAALLLGWIVLIATVVAYVTGVLSVRRLSPQVAGVVACLEAVIATVLAWVLLGEHLSAPQIIGGAVVLVGAFIAQSSAPAKPSDGPVTGGGGAERQLSARGTAA | failed
MPVSLYSGKVALRLLLLQLVTFALLSAVFSLNSVNAAASALGGGLAAWLPNVLFVLFALRHQSHKPADGRVAWSFAIGEALKVFITIALLVVALGVFKAAFFPLGLTYLSVLVMQIVAPIVINRYRN | failed
MPWLQVRLAITPEQAETYEDALLEVGAVSVTFMDAEDQPIFEPDLGTTPLWSRTHLLALFEADTDETALLAHLALLTGGDLPEHHVEEIADQDWERSWMDNFQPMRFGRRLWIVPSWHAAPEPDAVNLLLDPGLAFGTGTHPTTALCLEWLDGQELAGRQVLDFGCGSGILAIAALLLGAERAVGTDIDPQALEASRDNASRNGIEPARFPVYLPADLPQRQADVLVANILAGPLVSLAPQLTGLVRPGGLLALSGILAEQAEEVRAAYSAHFDLDPTAEREGWIRISGRRRAD | failed
MQAFRAPSLATIDDVCGTRADGYDGAPLRSIPDFAVIVPMHNEEASVETLVAEIVTACQPVGQFEIVVVDDASSDRTVNAVLSLGDRYPMLRLVRHDRQGGQSAAIHSGVQAARAPVICMLDGDGQNPPDNLPALLAPLLSATATSRLGLVAGQRVGRRDTLGKRLSSRFANGLRARILKDGTRDTGCGLKAFRRDAYLALPYFDHHHRYFPALFNRDGWQVAHVDVTHRARLHGNSHYTNIGRALVGIHDLIGVVWLLRRRKRSSWAETFKTETSPLEHHHHHH | not failed
MQAGPSAAVENKIITLVESILAQNGIAGGIERDTTFADAGLTSMEMVNLMLAVEAEFDMTLPQSDITPENFTSAATVAQLVSRRQHAQAALEHHHHHH | not failed
MQAIAIDQFSEPEETQVEQVENPDRNEAGYEVCNQSGENLSVAIAYFDTSIDSYRSEGWWNLDQSKCQFFPNLLDSVDEVYVFAESDQTLWSGDFPFCMQEDAFEYPDANRDRCPSPAYSKGFLKVEVGDAKTWTTNLTPSQLEHHHHHH | failed
MQDASAWMLALAGLCVGVTAGFFVRLARLCSFGAVEDALMGGDTRRLRIFGLALGIALLGTQALVIAGQLDPGQSNYTAPALPLISIAIGSVLFGIGMAFVGTCGFGSLVRLGGGDLRSFVVILVLGGAAYATLRGMFSGFRITVLERFAITMPEGVNTDLAALTQHLSGIDLRAVIAALGGGLLCLIALGDKRLRRTPRLLAAGVALGLLTVVGWLATTKLADPFAGPVHPQSLTFVSTVGKAVYAGLLNVANFADFGVGTVFGVIAGAFIAAWHTDELRWEAFDDDHEMRRHVAGAALMGFGGILTGGCTIGQGITAGSVMALSWPIAIVGMMFGARIGIAVLVDGSPRELIRRRFDAWRELLQRRRAPALTAANRPNHRPAAPSDAPRPTAPHSLAE | failed
MQDDVLAKELADKTSKADIDTDAQTVTRLIADEIDTAKQAAESDITQRSRFIETLRQYAGGGSAMAALITRLGYSKADILHLAELWAQERDPELNFIVGSLYDSGFVEVDDKEARSLQWFRKAAELGQADAQNILGYFYLNGKRGIKRDLQKGGQWYELAAAQGNVDALINLGEIYYSGTQVPLDYARAFEFFERAAKMGKSRALNYLAWMYTNGQFVDTDCRKAAELFAQGRTSFADDPHFQVTCEKDRQARAEAVAMREKNLPKLTFNRDRVFGASQGSGYACELEFVVKTDRVSSIENLRVSLALKNKAGAMSQQVIAFEPFGLNTQNRNLQGYKSDTLRESTLQPIYQPEFCDVDSYSVTAVTGIVNGKEMDILKAGIFL | failed
MQDEYYMARALKLAQRGRFTTHPNPNVGCVIVKDGEIVGEGYHQRAGEPHAEVHALRMAGEKAKGATAYVTLEPCSHHGRTPPCCDALIAAGVARVVASMQDPNPQVAGRGLYRLQQAGIDVSHGLMMSEAEQLNKGFLKRMRTGFPYIQLKLGASLDGRTAMASGESQWITSPQARRDVQLLRAQSHAILTSSATVLADDPALTVRWSELDEQTQALYPQQNLRQPIRIVIDSQNRVTPVHRIVQQPGETWFARTQEDSREWPETVRTLLIPEHKGHLDLVVLMMQLGKQQINSIWVEAGPTLAGALLQAGLVDELIVYIAPKLLGSDARGLCTLPGLEKLADAPQFKFKEIRHVGPDVCLHLVGA | not failed
MQDFDFSFNPKACEGCGAKCCVGESGYIFLNIQEMQQISAFLKLELEEFSQKYVKKVGYKFSLLEKDAKELGLACVFLDLETKKCQIYSVRPKQCQTFPFWEGVKTFSKEQKEAFCQSCPGITQKTKETKVR | failed
MQDFGDNSGRAPAAGRSWRNTPSSFGVVAIAFHWTIAVLFVAQLALGYLMSRDSIDPVLQFNFFQYHKSIGFLVLALAVPRCLWSVFSRKPRAVDGEGPVSRFAARVAHSALLFLTLAVPLAGWAVASTSPLQIPSYVFDLVVVPGLPMTISDQAEAFWSDVHATLAYLAAVIVLLHVIAALWHHFIRRDPTLRRMLPLPDTTDNSRREISSGQ | failed
MQDIVRKTIDNLNRNHMAGYYTQSIQQLHELLYRLMPEGQTVGCGDSVTLEQSGVYEYVRNHSYNFLDKYRTGLNREEKREIYLQNFRADTFLTGINAVTIDGKLFNIDGNGSRVAPIIYGPKQVIAVVGTNKIVKSVDDAIWRTRQIAAPLDARRLAKETPCVKLAKCIDCHHSQRICNDFVLITGQFEKGRIKVIFIEGDYGY | failed
MQDLGIAFQTAVGDSGGNLDGRTPLPSNDWLMKRNCSLTPRQAGWFYFSIVCFSTAIAVFFAVWLGAWLVLPFAGLELLGLGIALLAYARHAADYERVSVTDGMLVVETASASRITREVFNPRWVRVELGESFRAPVVLRSDKRSVQVGLYLDPYRRRKFAQELAVALQRV | failed

Source: a protein production outcome set (Wang et al. 2014)
